These results are taken from PMC3432171.

For this series, the target named is T1, VDRm-NT (vitamin D receptor, flexible loop deleted, no His-tag) (rat, UniProt P13053 1-423, del165-211).
T1 sequence: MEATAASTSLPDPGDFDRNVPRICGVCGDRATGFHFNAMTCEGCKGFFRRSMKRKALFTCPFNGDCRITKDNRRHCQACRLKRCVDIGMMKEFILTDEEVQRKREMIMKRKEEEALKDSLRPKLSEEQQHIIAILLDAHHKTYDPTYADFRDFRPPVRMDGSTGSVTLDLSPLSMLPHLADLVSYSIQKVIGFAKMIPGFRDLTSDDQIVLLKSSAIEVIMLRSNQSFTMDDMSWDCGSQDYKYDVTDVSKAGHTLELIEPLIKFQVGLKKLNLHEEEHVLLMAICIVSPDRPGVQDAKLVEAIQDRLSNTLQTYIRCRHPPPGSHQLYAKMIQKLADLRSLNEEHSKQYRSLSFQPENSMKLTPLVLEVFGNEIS
The series is described as follows: EMSA. (In general: In EMSA bound probe runs differently from free probe, usually more slowly.)

B1: VDRE duplex (dsDNA)
DNA 1: CACGGTTCACGAGGTTCACAC
DNA 2: GTGTGAACCTCGTGAACCGTG
Turning to B1, the binding result was “binds”.
